The values that follow come from patent publication US20080044423A1.

Experiment in all cases: cell-based or functional assay
Assay [1] has as its target human IL-17A, untagged, E. coli derived (in house or Peprotech) (human) (UniProt Q16552).
Assay [2] concerns the target cynomolgus IL-17A (cynomolgus).
For assay [3], the target named is human IL-17A derived from the HEK-EBNA expression system (human) (UniProt Q16552).
human IL-17A derived from the HEK-EBNA expression system (human), sequence (Q16552 24-155): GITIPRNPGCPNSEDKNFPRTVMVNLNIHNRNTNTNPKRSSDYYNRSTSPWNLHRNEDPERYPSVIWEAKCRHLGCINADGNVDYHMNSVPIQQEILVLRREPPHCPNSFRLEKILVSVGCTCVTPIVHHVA

human IL-17A, untagged, E. coli derived (in house or Peprotech) (human), sequence (Q16552 24-155): as above
cynomolgus IL-17A (cynomolgus), sequence (Q16552 other isoform, or with tags, fused parts or gaps limits assumed): as the sequence (Q16552 24-155) above, with T3A, P8S, N34S, I77V, N78K, P104R counted along it

For the substance “hIgG1 isotype control (human IgG1 CAT002, Cambridge Antibody Technology Limited)”, in assay [1], the OA synovial fibroblast IL-8 (IL-17A 1 ng/ml + TNF 0.01 ng/ml), % Inhibition at 50 nM antibody is -1.3%; the OA synovial fibroblast IL-8 (IL-17A 10 ng/ml + TNF 1 ng/ml), % Inhibition at 50 nM antibody was -3.9%; the cartilage explant IL-6 (IL-17A 10 ng/ml + TNF 1 ng/ml), % inhibition at 50 nM antibody was determined as 3.3%; the cartilage explant IL-6 (pg/ml), mean, IL-17A 10 ng/ml + TNF 1 ng/ml + antibody (55.00 pg/ml without antibody) came to 53.2 pg/mL.

As to mAb317 (R & D Systems) (antibody), the values for the HT1080 IL-6 release, IgG IC50 in assay [2] and in assay [3] were 14.1 nM and 3.2 nM, respectively.

As to “mIgG1 isotype control (mouse IgG1, R & D Systems) (antibody)”, in assay [1], the cartilage explant IL-6 (IL-17A 10 ng/ml + TNF 1 ng/ml), % inhibition at 50 nM antibody was determined as 13.8% and the cartilage explant IL-6 (pg/ml), mean, IL-17A 10 ng/ml + TNF 1 ng/ml + antibody (55.00 pg/ml without antibody) came out at 47.4 pg/mL.
